Legend:
[1] = biological target: CD96, expressed on transfected cells (UniProt P40200); assay: flow cytometry on transfected cells
[2] = biological target: T1, human CD226, full length, expressed on transfected cells (human) (UniProt Q15762); assay: flow cytometry on transfected cells
T1 sequence: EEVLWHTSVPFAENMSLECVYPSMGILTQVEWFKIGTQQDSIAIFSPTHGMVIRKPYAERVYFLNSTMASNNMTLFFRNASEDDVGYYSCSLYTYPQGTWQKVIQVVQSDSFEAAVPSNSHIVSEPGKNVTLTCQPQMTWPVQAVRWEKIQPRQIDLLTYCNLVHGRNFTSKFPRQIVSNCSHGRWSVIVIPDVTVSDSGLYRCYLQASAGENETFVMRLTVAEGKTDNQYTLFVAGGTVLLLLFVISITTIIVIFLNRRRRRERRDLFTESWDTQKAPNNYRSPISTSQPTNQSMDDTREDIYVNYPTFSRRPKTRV

[3] = biological target: CD112R, expressed on transfected cells (human) (UniProt Q6DKI7); assay: flow cytometry on transfected cells
Chain of CD112R, expressed on transfected cells (human) (Q6DKI7 whole entry): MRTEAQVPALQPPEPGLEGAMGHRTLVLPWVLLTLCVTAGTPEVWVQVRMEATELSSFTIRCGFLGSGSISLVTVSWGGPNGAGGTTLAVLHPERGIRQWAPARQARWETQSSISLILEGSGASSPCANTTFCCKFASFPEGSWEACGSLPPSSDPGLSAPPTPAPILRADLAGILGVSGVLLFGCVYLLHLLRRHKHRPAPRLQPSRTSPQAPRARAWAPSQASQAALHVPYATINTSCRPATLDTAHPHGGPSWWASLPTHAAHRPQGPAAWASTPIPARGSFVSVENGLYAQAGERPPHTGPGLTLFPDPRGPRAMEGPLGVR

[4] = biological target: CD80 (Homo sapiens (Human)) (UniProt P33681); assay: flow cytometry, cells expressing CD80
Chain of CD80 (Homo sapiens (Human)) (P33681 35-288 limits assumed): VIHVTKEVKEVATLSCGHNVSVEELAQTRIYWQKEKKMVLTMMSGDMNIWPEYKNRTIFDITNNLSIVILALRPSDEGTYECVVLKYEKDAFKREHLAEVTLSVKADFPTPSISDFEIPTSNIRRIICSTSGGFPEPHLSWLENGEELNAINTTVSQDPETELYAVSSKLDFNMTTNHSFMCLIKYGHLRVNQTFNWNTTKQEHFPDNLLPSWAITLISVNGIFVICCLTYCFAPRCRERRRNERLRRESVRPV

[5] = biological target: human PD-L1, full length, on transfected HEK293 cells (human) (UniProt Q9NZQ7); assay: flow cytometry, Fc fusion at 22.2 nM on HEK293 cells transfected with PD-L1
PD-1 (human) = assay: cell-based or functional assay
CD226 (human) = biological target: T2, CD226 (human) (UniProt Q15762); assay: flow cytometry, cells expressing target, 25 nM
T2 sequence: T1 sequence

CD96 = biological target: T3, CD96 (UniProt P40200); assay: flow cytometry, cells expressing target, 25 nM
T3 sequence (looked up): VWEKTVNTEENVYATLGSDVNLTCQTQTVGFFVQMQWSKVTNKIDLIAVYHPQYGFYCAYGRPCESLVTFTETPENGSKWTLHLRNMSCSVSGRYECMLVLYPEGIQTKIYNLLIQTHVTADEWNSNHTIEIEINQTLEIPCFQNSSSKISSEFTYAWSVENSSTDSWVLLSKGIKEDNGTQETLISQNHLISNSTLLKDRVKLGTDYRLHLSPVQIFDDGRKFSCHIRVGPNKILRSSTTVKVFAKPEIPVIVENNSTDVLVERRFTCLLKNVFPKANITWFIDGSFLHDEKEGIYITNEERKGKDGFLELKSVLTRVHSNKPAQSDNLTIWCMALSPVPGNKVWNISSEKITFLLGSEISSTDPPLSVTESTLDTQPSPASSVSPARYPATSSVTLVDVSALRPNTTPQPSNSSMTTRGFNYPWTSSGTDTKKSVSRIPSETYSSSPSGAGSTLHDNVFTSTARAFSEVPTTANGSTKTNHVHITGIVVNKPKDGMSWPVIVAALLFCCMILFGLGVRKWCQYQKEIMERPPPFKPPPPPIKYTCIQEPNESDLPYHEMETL

Chain of CD112-IgV (Q92692 32-156 limits assumed): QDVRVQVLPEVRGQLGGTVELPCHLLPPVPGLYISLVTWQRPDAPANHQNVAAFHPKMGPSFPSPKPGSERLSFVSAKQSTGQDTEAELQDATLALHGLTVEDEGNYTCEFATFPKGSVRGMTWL

| MFI at 100 nM [1] | MFI at 100 nM [2] | MFI at 100 nM [3] | Substance | other results |
| --- | --- | --- | --- | --- |
| 1710 | 2040 |  | CD155 variant S52W IgV-Fc (from UniProt P15151 24-139) (Fc fusion) |  |
|  | 2300 | 1820 | CD155 variant S42W, S52R, Q62Y, L104Q IgV-Fc (from UniProt P15151 24-139) (Fc fusion) |  |
| 2530 | 2270 | 1810 | CD155 variant S42V, S52E IgV-Fc (from UniProt P15151 24-139) (Fc fusion) |  |
|  | 1900 | 1550 | CD155 variant S52M IgV-Fc (from UniProt P15151 24-139) (Fc fusion) |  |
| 1620 | 2190 | 1740 | CD155 variant S42L IgV-Fc (from UniProt P15151 24-139) (Fc fusion) |  |
| 1480 | 2150 | 1660 | CD155 variant S42C, S52L IgV-Fc (from UniProt P15151 24-139) (Fc fusion) |  |
| 99000 |  | 1780 | Wildtype CD155 ECD-Fc (from UniProt P15151 21-343) (Fc fusion) |  |
| 1520 | 2040 | 1700 | CD155 variant Q62F, L104E, G111R IgV-Fc (from UniProt P15151 24-139) (Fc fusion) |  |

Second part, the substance before the results:

| Substance | MFI at 100 nM [1] | MFI at 100 nM [2] | MFI at 100 nM [3] | other results |
| --- | --- | --- | --- | --- |
| CD155 variant S42N IgV-Fc (from UniProt P15151 24-139) (Fc fusion) | 1690 | 1910 | 1700 |  |
| CD155 variant S42Q IgV-Fc (from UniProt P15151 24-139) (Fc fusion) | 2140 | 2230 | 1910 |  |
| variant PD-L1 ECD-Fc G15A, V129D (from UniProt Q9NZQ7 19-238) (Fc fusion) |  |  |  | MFI at 20 nM [4]: 128 |
| CD155 variant S42N, S52E, V57L, L104E IgV-Fc (from UniProt P15151 24-139) (Fc fusion) | 1540 | 1740 | 1690 |  |
| variant PD-L1 ECD-Fc V129D, T150A (from UniProt Q9NZQ7 19-238) (Fc fusion) |  |  |  | MFI at 20 nM [4]: 142 |
| CD155 variant S42L, S52Q, L104E IgV-Fc (from UniProt P15151 24-139) (Fc fusion) | 1700 | 6470 | 1750 |  |
| CD80 variant IgV-Fc E35D/M47I/L70M (from UniProt P33681 35-141) (Fc fusion) |  |  |  | MFI at 22.2 nM [5]: 49100 MFI |
| variant PD-L1 ECD-Fc S99G, T185A, R195G, P198T (from UniProt Q9NZQ7 19-238) (Fc fusion) |  |  |  | MFI at 20 nM [4]: 22100 |
| variant PD-L1 ECD-Fc M18V, I98L, L124S, P198T, L206F (from UniProt Q9NZQ7 19-238) (Fc fusion) |  |  |  | MFI at 20 nM [4]: 143 |
| CD155 variant S52W, L104E IgV-Fc (from UniProt P15151 24-139) (Fc fusion) | 1630 | 1910 | 2070 |  |
| CD155 variant S42C IgV-Fc (from UniProt P15151 24-139) (Fc fusion) | 1590 | 2100 | 1680 |  |
| variant PD-L1 ECD-Fc I36T, M97L, V129D (from UniProt Q9NZQ7 19-238) (Fc fusion) |  |  |  | MFI at 20 nM [4]: 50900 |
| variant PD-L1 ECD-Fc V93E, V129D (from UniProt Q9NZQ7 19-238) (Fc fusion) |  |  |  | MFI at 20 nM [4]: 150 |
| variant PD-L1 ECD-Fc V129D, P198T (from UniProt Q9NZQ7 19-238) (Fc fusion) |  |  |  | MFI at 20 nM [4]: 152 |
| CD155 variant S42A, S52Q, L104Q, G111R IgV-Fc (from UniProt P15151 24-139) (Fc fusion) | 1640 | 2160 | 1890 |  |
| CD155 variant S42W, S52Q, V57L, Q62Y IgV-Fc (from UniProt P15151 24-139) (Fc fusion) | 1700 | 2140 | 1840 |  |
| variant PD-L1 ECD-Fc E54G, M97L, S99G (from UniProt Q9NZQ7 19-238) (Fc fusion) |  |  |  | MFI at 20 nM [4]: 51900 |
| CD155 variant S52M, V57L IgV-Fc (from UniProt P15151 24-139) (Fc fusion) | 1860 | 2430 | 2010 |  |
| CD80 variant IgV-Fc E35D/A71D/L72V (from UniProt P33681 35-141) (Fc fusion) |  |  |  | MFI at 22.2 nM [5]: 13100 MFI |
| variant PD-L1 ECD-Fc M18V, M97L, T176N, R195G (from UniProt Q9NZQ7 19-238) (Fc fusion) |  |  |  | MFI at 20 nM [4]: 45300 |

| Substance | MFI at 100 nM [1] | MFI at 100 nM [2] | MFI at 100 nM [3] | other results |
| --- | --- | --- | --- | --- |
| CD155 variant S42C, S52M, Q62F IgV-Fc (from UniProt P15151 24-139) (Fc fusion) | 1480 | 2080 | 1590 |  |
| variant PD-L1 ECD-Fc I36S, M97L (from UniProt Q9NZQ7 19-238) (Fc fusion) |  |  |  | MFI at 20 nM [4]: 44600 |
| CD155 variant S42A IgV-Fc (from UniProt P15151 24-139) (Fc fusion) | 1620 | 2190 | 1730 |  |
| variant PD-L1 ECD-Fc K57R, S99G (from UniProt Q9NZQ7 19-238) (Fc fusion) |  |  |  | MFI at 20 nM [4]: 16300 |
| CD155 variant S52M, Q62Y IgV-Fc (from UniProt P15151 24-139) (Fc fusion) | 1650 | 2000 | 1770 |  |
| variant PD-L1 ECD-Fc V129D, H202Q (from UniProt Q9NZQ7 19-238) (Fc fusion) |  |  |  | MFI at 20 nM [4]: 219 |
| PD-L2 IgV-Fc H15Q, S39I, S67L, V89D (Fc fusion) |  |  |  | Fold increase over wildtype PD-L2 IgV-Fc, MLR IFN gamma (PD-1 (human)): 0.89 fold; IFN gamma levels pg/mL, MLR (PD-1 (human)): 1230 pg/mL |
| CD155 variant G111R IgV-Fc (from UniProt P15151 24-139) (Fc fusion) | 3320 | 2790 | 2470 |  |
| CD155 variant S42G, S52Q, L104E, G111R IgV-Fc (from UniProt P15151 24-139) (Fc fusion) | 1710 | 2020 | 1710 |  |
| CD155 variant S42A, L104Q, G111R IgV-Fc (from UniProt P15151 24-139) (Fc fusion) | 1700 | 1900 | 1820 |  |
| PD-L2 IgV-Fc V89D (Fc fusion) |  |  |  | Fold increase over wildtype PD-L2 IgV-Fc, MLR IFN gamma (PD-1 (human)): 0.85 fold; IFN gamma levels pg/mL, MLR (PD-1 (human)): 1170 pg/mL |
| variant PD-L1 ECD-Fc K57R, S99G, R195G (from UniProt Q9NZQ7 19-238) (Fc fusion) |  |  |  | MFI at 20 nM [4]: 11000 |
| PD-L2 IgV-Fc H15Q, R76G, I85F (SEQ ID NO 1505) (Fc fusion) |  |  |  | Fold increase over wildtype PD-L2 IgV-Fc, MLR IFN gamma (PD-1 (human)): 1.04 fold; IFN gamma levels pg/mL, MLR (PD-1 (human)): 1440 pg/mL |
| CD112-IgV (from UniProt Q92692 32-156) (Fc fusion) |  |  |  | MFI at 25 nM (CD226 (human)): 824 MFI; MFI at 25 nM (CD96): 1170 MFI |
| CD155 variant S42L, S52L, Q62F, L104Q IgV-Fc (from UniProt P15151 24-139) (Fc fusion) | 2320 | 2640 | 1730 |  |
| PD-L2 IgV-Fc H15Q, L33P, T47A, S67L, P71S, V89D (Fc fusion) |  |  |  | Fold increase over wildtype PD-L2 IgV-Fc, MLR IFN gamma (PD-1 (human)): 0.94 fold; IFN gamma levels pg/mL, MLR (PD-1 (human)): 1290 pg/mL |
| CD155 variant S42G, S52L, Q62F, L104Q IgV-Fc (from UniProt P15151 24-139) (Fc fusion) | 1640 | 2160 | 1660 |  |
| PD-L2 IgV-Fc I13V, H15Q, V31A, N45S, Q82R, V89D (Fc fusion) |  |  |  | Fold increase over wildtype PD-L2 IgV-Fc, MLR IFN gamma (PD-1 (human)): 1.25 fold; IFN gamma levels pg/mL, MLR (PD-1 (human)): 1720 pg/mL |
| PD-L2 IgV-Fc H15Q, N24S, T47A, Q72H, R76G, V89D (Fc fusion) |  |  |  | Fold increase over wildtype PD-L2 IgV-Fc, MLR IFN gamma (PD-1 (human)): 0.79 fold; IFN gamma levels pg/mL, MLR (PD-1 (human)): 1090 pg/mL |
| PD-L2 IgV-Fc I13V, H15Q, Q82R, V89D (Fc fusion) |  |  |  | Fold increase over wildtype PD-L2 IgV-Fc, MLR IFN gamma (PD-1 (human)): 1.16 fold; IFN gamma levels pg/mL, MLR (PD-1 (human)): 1600 pg/mL |

— patent US20200040059A1
